Laboratory results reported in paper doi:10.1101/2020.11.12.379867.

Biological target: GST-STG^9D (GST-fused C-terminus of STG with nine serine residues replaced with aspartate)
Assay: pull-down

- amount of μ3 pulled down (STG^9A = 100%): 21%
B1: flag-tagged μ3 subunit of the adaptor protein AP-3 (μ3A) (natural protein)
chain: MIHSLFLINCSGDIFLEKHWKSVVSQSVCDYFFEAQEKAADVENVPPVISTPHHYLISIYRDKLFFVSVIQTEVPPLFVIEFLHRVADTFQDYFGECSEAAIKDNVVIVYELLEEMLDNGFPLATESNILKELIKPPTILRSVVNSITGSSNVGDTLPTGQLSNIPWRRAGVKYTNNEAYFDVVEEIDAIIDKSGSTVFAEIQGVIDACIKLSGMPDLSLSFMNPRLLDDVSFHPCIRFKRWESERVLSFIPPDGNFRLISYRVSSQNLVAIPVYVKHSISFKENSSCGRFDITIGPKQNMGKTIEGITVTVHMPKVVLNMNLTPTQGSYTFDPVTKVLAWDVGKITPQKLPSLKGLVNLQSGAPKPEENPNLNIQFKIQQLAISGLKVNRLDMYGEKYKPFKGVKYVTKAGKFQVRT
